This is an account of results in patent publication US20110306057A1 (Dana-Farber, published 2011).

For assay [1], the target named is T1, wild type (WT) FLAG epitope-tagged version of PP2A Aβ (UniProt P30154 1-601).
T1 construct: also called wtPP2A Aβ; FLAG-tagged Aβ
The assay can be described thus: anti-FLAG (M2) co-IP from 293T cells, RalA immunoblot. On the technique in general: A western blot detects proteins with antibodies after separation by electrophoresis.

Assay [2] deals with T2, FLAG-epitope tagged PP2A Aα (UniProt P30153 1-589).
T2 construct: also called wtPP2A Aα; FLAG-tagged Aα
T2 sequence (P30153 whole entry): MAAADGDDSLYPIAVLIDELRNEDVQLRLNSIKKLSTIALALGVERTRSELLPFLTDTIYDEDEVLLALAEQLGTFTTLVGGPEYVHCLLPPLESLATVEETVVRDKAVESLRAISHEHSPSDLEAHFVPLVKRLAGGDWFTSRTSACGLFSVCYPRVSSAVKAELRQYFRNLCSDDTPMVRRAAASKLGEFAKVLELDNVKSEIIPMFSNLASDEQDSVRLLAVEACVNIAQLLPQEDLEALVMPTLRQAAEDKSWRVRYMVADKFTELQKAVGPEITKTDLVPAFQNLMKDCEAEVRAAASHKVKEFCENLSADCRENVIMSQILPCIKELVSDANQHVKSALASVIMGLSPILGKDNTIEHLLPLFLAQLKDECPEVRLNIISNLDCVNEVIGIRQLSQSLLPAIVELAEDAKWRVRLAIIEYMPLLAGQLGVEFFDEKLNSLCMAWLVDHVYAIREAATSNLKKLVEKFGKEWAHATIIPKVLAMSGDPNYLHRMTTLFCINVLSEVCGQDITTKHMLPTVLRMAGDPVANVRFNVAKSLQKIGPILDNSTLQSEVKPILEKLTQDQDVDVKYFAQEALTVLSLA
Described as above.

Assay [3] concerns the target T3, cancer-derived FLAG-tagged PP2A Aβ mutant V448A (UniProt P30154 1-601).
T3 construct: Overexpressed in HEK TER cells
As to the kind of experiment: anti-FLAG (M2) co-IP from HEK TER cells, RalA immunoblot.
Experimental: (§1) Immunoblot analysis was then performed using antibodies specific to RalA (BD Biosciences, San Jose, Calif.) and FLAG (M2).

The target of assay [4] is T4, cancer-derived FLAG-tagged PP2A Aβ mutant G8R (UniProt P30154 1-601).
T4 construct: Overexpressed in HEK TER cells; the shRNA-resistant form carries silent substitutions only; also called G8R Aβ mutant
T4 sequence (P30154 other isoform, or with tags, fused parts or gaps limits assumed, stated change not applied): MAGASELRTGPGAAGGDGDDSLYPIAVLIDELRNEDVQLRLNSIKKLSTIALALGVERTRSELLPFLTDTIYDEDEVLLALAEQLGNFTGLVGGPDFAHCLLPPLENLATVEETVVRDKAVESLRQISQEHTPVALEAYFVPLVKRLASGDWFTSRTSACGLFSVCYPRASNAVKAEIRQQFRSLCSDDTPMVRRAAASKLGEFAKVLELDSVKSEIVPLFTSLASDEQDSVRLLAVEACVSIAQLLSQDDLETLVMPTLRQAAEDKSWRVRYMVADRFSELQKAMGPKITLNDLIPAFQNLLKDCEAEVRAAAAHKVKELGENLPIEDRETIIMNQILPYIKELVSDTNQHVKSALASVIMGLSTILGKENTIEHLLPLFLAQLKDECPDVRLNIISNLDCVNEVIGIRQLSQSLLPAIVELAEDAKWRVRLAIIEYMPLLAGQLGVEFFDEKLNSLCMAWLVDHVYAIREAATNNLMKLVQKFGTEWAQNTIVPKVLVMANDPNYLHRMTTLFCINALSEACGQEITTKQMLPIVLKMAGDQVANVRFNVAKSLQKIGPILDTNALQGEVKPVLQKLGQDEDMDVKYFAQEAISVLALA
The assay is described as above.
Experimental: as §1

T3 sequence (P30154 whole entry V448A): as the sequence (P30154 other isoform, or with tags, fused parts or gaps limits assumed, stated change not applied) above, with R8G, V448A counted along it
T1 sequence (P30154 whole entry): as the sequence (P30154 other isoform, or with tags, fused parts or gaps limits assumed, stated change not applied) above, with R8G counted along it

B1: endogenous RalA (enzyme)
chain: MAANKPKGQNSLALHKVIMVGSGGVGKSALTLQFMYDEFVEDYEPTKADSYRKKVVLDGEEVQIDILDTAGQEDYAAIRDNYFRSGEGFLCVFSITEMESFAATADFREQILRVKEDENVPFLLVGNKSDLEDKRQVSVEEAKNRAEQWNVNYVETSAKTRANVDKVFFDLMREIRARKMEDSKEKNGKKKRKSLAKRIRERC
notes: Endogenous protein in cell lysates; also called small GTPase RalA
Regarding B1, the binding result in assay [1] is “binds”; in assay [2] it was “no binding”; in assay [3], “no binding”; in assay [4], “no binding”.
